T1: His6-tagged CB1R-CTD (amino acids 400-472), labeled with 5-IAF (UniProt P21554 400-472, labeled with 5-(iodoacetamido)fluorescein (5-IAF); labeled residue not stated)
T1 chain: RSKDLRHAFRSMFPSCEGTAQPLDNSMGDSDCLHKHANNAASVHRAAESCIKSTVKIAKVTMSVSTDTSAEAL


Molecular target: T1, His6-tagged CB1R-CTD (amino acids …)
Test: FP

Binder | Kd [µM]
His6-tagged BiP-IR (amino acids 497-654), recombinant (domain or fragment) IEVTFEIDVNGILRVTAEDKGTGNKNKITITNDQNRLTPEEIERMVNDAEKFAEEDKKLKERIDTRNELESYAYSLKNQIGDKEKLGGKLSSEDKETMEKAVEEKIEWLESHQDADIEDFKAKKKELEEIVQPIISKLYGSAGPPPTGEEDTAEKDEL | 17.3
His6-tagged BiP, recombinant (natural protein) not shown | 17.7

From PMC8460140 (2021)
